The assay has as its target T1, Sizn1 bait (full-length Sizn1 coding sequence in pGBKT7) (mouse, UniProt Q9CZA5 1-402).
T1 construct: Yeast two-hybrid bait in AH109 cells; also called Sizn bait construct; Sizn1 as a bait; not shown: fusion partner supplied by vector pGBKT7 (Clontech)
As to the kind of experiment: yeast two-hybrid screen of an E11 mouse library.

This note sets out measurements from patent publication US20070009927A1 (published 2007).

T1 sequence (Q9CZA5 whole entry, the tested form may be a part): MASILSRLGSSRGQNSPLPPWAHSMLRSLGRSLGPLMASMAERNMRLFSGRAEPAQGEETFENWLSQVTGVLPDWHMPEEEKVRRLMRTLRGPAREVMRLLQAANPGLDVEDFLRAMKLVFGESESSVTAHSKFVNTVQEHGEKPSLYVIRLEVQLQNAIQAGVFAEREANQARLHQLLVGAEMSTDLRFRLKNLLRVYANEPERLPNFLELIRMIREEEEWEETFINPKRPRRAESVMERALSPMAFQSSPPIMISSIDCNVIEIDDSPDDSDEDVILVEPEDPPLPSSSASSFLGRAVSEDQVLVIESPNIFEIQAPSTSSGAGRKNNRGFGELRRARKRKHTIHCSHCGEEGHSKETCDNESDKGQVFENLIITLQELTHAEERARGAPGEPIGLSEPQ

B1: amino acids 382-495 of Smad6 corresponding to the MH2 domain of Smad6 (other, mouse, UniProt O35182 382-495, looked up)
chain: RRTRSKIGFGILLSKEPDGVWAYNRGEHPIFVNSPTLDAPGGRALVVRKVPPGYSIKVFDFERSGLLQHADAAHGPYDPHSVRISFAKGWGPCYSRQFITSCPCWLEILLNNHR
notes: Positive prey clone of the yeast two-hybrid screen; also called Smad6 MH2 domain; not shown: library fusion partner of the Matchmaker3 two-hybrid prey vector; not described
For B1, the binding result was “binds”.
